Assay results taken from the supplement of paper PMC10126150.
± gives the standard deviation of the averaged measurements.

Test system: ATP
Assay: switch fluorescence ratio, 500 uM ATP over buffer (Cy3 cluster intensity, sum of 5 cycles each) (fold (ratio)); higher = stronger signal-on switching upon ATP binding; sequences stand for … in TCGTCGGCAGCGTCAGATGTGTATAAGAGACAGTTTTTTTTTTTTTTTTTTTTTTTTT…TC
Conditions: aptamer strand: ATP DNA aptamer (quencher-CACCTGGGGGAGTATTGCGGAGGAAGG + anchor), 100 nM annealed; ATP concentration: 500 uM
Summary of the method: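 Clusters with intensities outside 100-1000 RFU were excluded. The remaining Cy3-labelled switching-strand clusters on a modified Illumina MiSeq flow-cell had been annealed to 100 nM quencher-labelled ATP aptamer and imaged in selection buffer, then after 15 min with 500 uM ATP at 22 °C, for five cycles separated by NaOH stripping and re-annealing. The fluorescence ratio, averaged per switch-domain sequence, is each cluster's summed target-cycle Cy3 intensity over its summed buffer-cycle Cy3 intensity.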
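Note: ATP exposure 15 min at 22 °C before imaging.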

Sequence	switch fluorescence ratio
AGGACCGTTT	0.991 ± 0.016
AGGACGACGG	0.964 ± 0.021
AGGACGTAGC	1.09 ± 0.018
AGGACTAAGG	0.98 ± 0.026
AGGACTCCGT	0.98 ± 0.095
AGGACTGGCA	0.991 ± 0.038
AGGACTGGTG	1.01 ± 0.044
AGGACTTAGG	1.06 ± 0.056
AGGACTTTAA	1.0405 ± 0.0001
AGGAGACATA	1 ± 0.021
AGGAGAGGAG	1.02 ± 0.038
AGGAGCGCGT	1.02 ± 0.051
AGGAGCGGGG	1 ± 0.1
AGGAGCGGTG	0.985 ± 0.047
AGGAGCTCGG	0.994 ± 0.013
AGGAGGAAAG	0.987 ± 0.028
AGGAGGAGTT	1.01 ± 0.053
AGGAGGCTAG	1.02 ± 0.045
AGGAGGGGA	1.03 ± 0.02
AGGAGGGGCG	0.983 ± 0.0099
AGGAGGTCGG	0.991 ± 0.01
AGGAGGTTGT	0.976 ± 0.017
AGGAGTGTTC	1.01 ± 0.084
AGGATACTGG	0.975 ± 0.031
AGGATCGGAT	1.04 ± 0.003

Sequence	switch fluorescence ratio
AGGATCGGTC	1.02 ± 0.021
AGGATCTCGA	0.996 ± 0.033
AGGATGGGAG	0.999 ± 0.023
AGGATGGGGA	0.99 ± 0.023
AGGATGGTAC	1.03 ± 0.015
AGGATGTAGG	1.02 ± 0.035
AGGATGTTTT	0.995 ± 0.039
AGGATTAAAT	0.987 ± 0.026
AGGATTGTTG	0.994 ± 0.07
AGGATTTATG	0.962 ± 0.021
AGGATTTT	0.955 ± 0.066
AGGATTTTTC	1.03 ± 0.044
AGGATTTTTT	1.003 ± 0.0094
AGGCAACTAG	1.05 ± 0.027
AGGCACCATC	1.06 ± 0.045
AGGCACCGGT	1.04 ± 0.0041
AGGCACGGGC	1.0064 ± 0.001
AGGCACTACA	1.017 ± 0.0064
AGGCAGATAG	1.04 ± 0.025
AGGCAGCTAT	1.05 ± 0.038
AGGCAGGAGG	1 ± 0.015
AGGCAGGGGG	1.03 ± 0.021
AGGCATCTGG	0.994 ± 0.011
AGGCCACTCG	0.978 ± 0.0036
AGGCCAGCTG	0.993 ± 0.062

Sequence	switch fluorescence ratio
AGGCCAGGCG	1.02 ± 0.051
AGGCCAGTTG	1.02 ± 0.012
AGGCCCGTTA	0.9957 ± 0.0027
AGGCCGGCAA	1.02 ± 0.045
AGGCCGGTGA	1.01 ± 0.018
AGGCCTTCAG	0.9915 ± 0.0083
AGGCCTTGGC	1.018 ± 0.0039
AGGCCTTGTG	0.985 ± 0.025
AGGCCTTTTG	0.956 ± 0.033
AGGCGCGTGG	1.03 ± 0.013
AGGCGCTGGG	0.999 ± 0.028
AGGCGGATCG	0.99 ± 0.085
AGGCGGCGAG	1 ± 0.024
AGGCGGGTGC	1.04 ± 0.095
AGGCGGGTTG	0.993 ± 0.026
AGGCGGTGGG	1.044 ± 0.0059
AGGCGTGGGG	1.03 ± 0.017
AGGCTAGGGC	0.993 ± 0.022
AGGCTCGTAC	1.08 ± 0.09
AGGCTGGGGA	1.01 ± 0.057
AGGCTGTCAC	0.996 ± 0.013
AGGCTTACCC	1.01 ± 0.018
AGGCTTGGGT	0.982 ± 0.024
AGGCTTTCAG	0.9828 ± 0.0011
AGGCTTTTTC	0.999 ± 0.024

Sequence	switch fluorescence ratio
AGGCTTTTTG	0.969 ± 0.015
AGGGAAAAAA	1.01 ± 0.043
AGGGAAAATG	0.967 ± 0.033
AGGGAAAATT	0.995 ± 0.011
AGGGAAAGCT	1.12 ± 0.2
AGGGAAGATA	0.998 ± 0.014
AGGGAAGCGG	0.982 ± 0.047
AGGGAAGGGA	1 ± 0.013
AGGGAAGTTT	1.03 ± 0.084
AGGGAATGAA	1.03 ± 0.085
AGGGAATTAC	1.022 ± 0.0036
AGGGACACTA	1.07 ± 0.028
AGGGACAGGG	1.02 ± 0.05
AGGGACATAT	1.018 ± 0.006
AGGGACGCTT	1.14 ± 0.12
AGGGACTGGG	0.993 ± 0.038
AGGGAGACGG	1 ± 0.033
AGGGAGCCGG	0.965 ± 0.03
AGGGAGGAAA	1 ± 0.036
AGGGAGGCTC	1 ± 0.057
AGGGAGGGAG	0.97 ± 0.035
AGGGAGGTGT	0.997 ± 0.036
AGGGAGTTGG	0.995 ± 0.032
AGGGATATAT	0.98 ± 0.011
AGGGATATTT	1.01 ± 0.033

Sequence	switch fluorescence ratio
AGGGATTCGC	0.997 ± 0.011
AGGGCATAAG	0.982 ± 0.062
AGGGCATCGG	1.021 ± 0.0044
AGGGCATTAT	1.04 ± 0.047
AGGGCCCTCG	0.9898 ± 0.0036
AGGGCCTCCG	1.295 ± 0.0091
AGGGCCTGGG	0.999 ± 0.04
AGGGCGACCG	1.07 ± 0.069
AGGGCGCGCT	1.01 ± 0.034
AGGGCGCTG	0.9885 ± 0.0045
AGGGCGTCGA	0.986 ± 0.034
AGGGCGTGGC	0.9876 ± 0.0018
AGGGCGTTTG	0.998 ± 0.018
AGGGCTAAAT	0.995 ± 0.025
AGGGCTGACG	1.02 ± 0.024
AGGGCTGGAT	1.06 ± 0.12
AGGGCTTTCC	1.075 ± 0.007
AGGGGAAGCT	1.03 ± 0.081
AGGGGAAGTC	0.953 ± 0.015
AGGGGAATAA	0.997 ± 0.015
AGGGGAATG	1 ± 0.022
AGGGGAATGC	1.09 ± 0.084
AGGGGAATTA	1.026 ± 0.0047
AGGGGACAAA	1 ± 0.035
AGGGGACTGT	1.01 ± 0.047

Sequence	switch fluorescence ratio
AGGGGAGATG	0.991 ± 0.048
AGGGGAGGAA	0.994 ± 0.013
AGGGGAGGGC	0.998 ± 0.042
AGGGGAGTAA	0.996 ± 0.023
AGGGGATGGG	1.03 ± 0.033
AGGGGCAAAG	1.01 ± 0.013
AGGGGCATGG	0.998 ± 0.04
AGGGGCCGGG	1.05 ± 0.12
AGGGGCCTGT	0.962 ± 0.037
AGGGGCGAGA	0.999 ± 0.013
AGGGGCGGAG	0.9743 ± 0.0035
AGGGGCTCGT	1 ± 0.012
AGGGGCTGAA	0.986 ± 0.042
AGGGGCTTGT	0.979 ± 0.024
AGGGGGAATA	1.02 ± 0.011
AGGGGGACGG	0.987 ± 0.023
AGGGGGATGG	0.996 ± 0.013
AGGGGGCAAC	1.04 ± 0.03
AGGGGGCGTA	0.9896 ± 0.0086
AGGGGGCGTG	1.03 ± 0.031
AGGGGGCTAT	1.02 ± 0.015
AGGGGGCTCG	1 ± 0.024
AGGGGGCTGG	0.977 ± 0.018
AGGGGGGATT	1 ± 0.019
AGGGGGGCCC	1 ± 0.037

Sequence	switch fluorescence ratio
AGGGGGGGAA	1.01 ± 0.032
AGGGGGGGTG	1.05 ± 0.11
AGGGGGGTAA	0.993 ± 0.026
AGGGGGGTG	1 ± 0.039
AGGGGGTCGT	0.98 ± 0.017
AGGGGGTTAA	0.996 ± 0.017
AGGGGGTTGA	1.03 ± 0.032
AGGGGGTTGC	1.01 ± 0.026
AGGGGGTTTC	1 ± 0.022
AGGGGTAACG	0.9807 ± 0.0098
AGGGGTAGTA	1.03 ± 0.04
AGGGGTAGTG	0.98 ± 0.019
AGGGGTATAT	1.02 ± 0.028
AGGGGTATTT	1.01 ± 0.041
AGGGGTGAGC	1.02 ± 0.072
AGGGGTGCCG	1.05 ± 0.026
AGGGGTGGCG	1.02 ± 0.014
AGGGGTGGTT	0.9581 ± 0.0017
AGGGGTGTCT	1.03 ± 0.017
AGGGGTTCCG	0.979 ± 0.042
AGGGGTTGGC	0.958 ± 0.056
AGGGGTTGGG	0.992 ± 0.061
AGGGGTTGTA	0.971 ± 0.02
AGGGGTTTCT	0.984 ± 0.016
AGGGTAAAGT	0.98 ± 0.018

Sequence	switch fluorescence ratio
AGGGTAACTT	1.01 ± 0.023
AGGGTAAGGT	1.04 ± 0.082
AGGGTAATGC	1.11 ± 0.09
AGGGTAATGT	0.9718 ± 0.0036
AGGGTAATTA	0.979 ± 0.029
AGGGTACTTA	1.05 ± 0.028
AGGGTAGGCC	1.009 ± 0.0019
AGGGTAGTTT	0.985 ± 0.045
AGGGTATGAA	0.998 ± 0.022
AGGGTATGTA	1 ± 0.015
AGGGTATTGG	0.993 ± 0.028
AGGGTCAGCT	1.02 ± 0.014
AGGGTCGATG	1.07 ± 0.073
AGGGTCGGGA	0.9838 ± 0.0013
AGGGTCTCCG	1 ± 0.062
AGGGTCTTCG	1.04 ± 0.012
AGGGTGAACC	0.99 ± 0.016
AGGGTGACCT	1.17 ± 0.15
AGGGTGAGAG	0.965 ± 0.025
AGGGTGAGGT	0.993 ± 0.022
AGGGTGGGGC	1.03 ± 0.065
AGGGTGGGTT	0.9771 ± 0.005
AGGGTGGTGC	1.03 ± 0.018
AGGGTGGTTG	0.987 ± 0.058
AGGGTTCCTG	0.954 ± 0.036
